Source: US20080268015A1 (AFFINERGY, published 2008)
Primed or numbered codes have the meaning given here. Where no end group is shown, it is not given here. [ ]: non-standard residue; d: D form. PEG10′ = non-peptide PEG10 spacer

Molecular target: BMP2 (Bone Morphogenetic Protein 2) (UniProt P12643 283-396)
Experiment: ELISA: composition (10 uM) pre-bound to DBM, serial dilutions of BMP-2, detected with anti-BMP-2 antibody
Method: A binding assay was performed using ELISA; and the resultant absorbance observed across the concentration range of pharmaceutically active agent yielded a binding curve and rough dissociation constant of the composition which were used to calculate an EC50. Appropriate controls, including absence of the composition, were included in the assay.
As a specific example, DBM was placed in a microtiter plate at a concentration of 3 mg equivalents per well, and then the wells and DBM were blocked with buffer containing 1% BSA for 1 hour at room temperature. The buffer containing 1% BSA was then aspirated from each well, and added to each of the wells was 100 μl of buffer containing 10 μM of the respective composition embodiments. The microtiter plates were incubated for 1 hour at room temperature on a plate shaker. The DBM was then allowed to settle, and the buffer was then aspirated from the wells. The DBM was washed three times with buffer-T, and then serial dilutions of BMP-2 were added to the wells in 100 μl of buffer. The microtiter plates were then incubated for 1 hour at room temperature on a plate shaker. The DBM, having composition bound thereto, was then allowed to settle, and then buffer was aspirated from the wells. The DBM-composition combination was washed three times with buffer-T. Commercial murine anti-BMP-2 antibody was diluted 1:1000 in buffer containing 1% BSA, and 100 μl was added per well. The plates were incubated for 30 minutes at room temperature on a plate shaker, and then the wash step was repeated. Commercial anti-mouse antibody labeled with alkaline phosphatase was diluted 1:1000 in buffer containing 1% BSA, and 100 μl was added per well. The plates were incubated for 30 minutes at room temperature on a plate shaker, and then the wash step was repeated. Added to each well was 200 μl of substrate pNPP, and the plates were incubated at room temperature on a plate shaker to develop the assay. 100 μl of solution was removed from each well and added to a respective well of a new microtiter plate which was then read on a spectrophotometer and the absorbance was recorded at 405 nm. An estimate of the relative affinity, binding specificity, EC50 of the composition for pharmaceutically active agent can be made by determining the concentration of peptide that provides one-half the maximal signal in the assay.

Chain of BMP2 (Bone Morphogenetic Protein 2) (P12643 283-396 limits assumed): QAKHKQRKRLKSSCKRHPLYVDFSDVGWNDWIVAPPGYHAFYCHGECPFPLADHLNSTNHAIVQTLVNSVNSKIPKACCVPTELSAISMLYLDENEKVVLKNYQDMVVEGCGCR

Row | Binder | EC50 [nM]
1 | SFGSWWWGSGAASSRG[PEG10′]GGGAWEAFSSLSGSRVGSSGK (also: C-terminal amino linker biotinylated) | < 10
2 | SWWGFWNGSAAPVWSRGSSGAGAWEAFSSLSGSRVGSSGK (also: biotin linked to C-terminal GSSGK linker, site not given here) | < 10
3 | SWWGFWNGSAAPVWSRGSSGAGALGFPLKGEVVEGWAGSSGK (also: biotin linked to C-terminal GSSGK linker, site not given here) | < 10
4 | SFGSWWWGSGAASSRG[PEG10′]AGAWEAFSSLSGSRVGSSGK (also: C-terminal amino linker biotinylated) | < 10

More lines, now with the values ahead:

Row | EC50 [nM] | Binder
5 | < 10 | SWWGFWNGSAAPVWSRGSSESAGAWEAFSSLSGSRVGSSGK (also: biotin linked to C-terminal GSSGK linker, site not given here)
6 | < 10 | SFGSWWWGSGAASSRGSSGGGALGFPLKGEVVEGWAGSSGK (also: biotin linked to C-terminal GSSGK linker, site not given here)
